Experiments:
[1] = biological target: T1, native FN 110 kD (B-) thermolysin fragment (human, UniProt P02751-1 722-1630, limits assumed); test: ELISA
T1 construct: domain: thermolysin treated FN domain 4, without ED-B; also called 110 kD protein

[2] = biological target: T2, recombinant FN domain 6 (human, UniProt P02751 1086-1172, limits assumed); test: ELISA
T2 construct: domain: FN-6; also called rec FN-6; rec FN6

[3] = biological target: T3, 85 kD thermolysin fragment of FN from WI38VA cells (human, UniProt P02751 722-1351, limits assumed); test: immunoblot
T3 construct: domain: 85 kD fragment spanning repeats 2-7 in addition to the N-terminus of ED-B; also called 85 kD fragment; 85 kD domain
Protocol: (§1) The antigens used for ELISA and immunoblotting were prepared as follows. FN was purified from human plasma and from the conditioned medium of the WI38VA13 cell line as previously reported (Zardi et al, 1987). Purified FNs were digested with thermolysin (protease type X; Sigma Chemical Co.) as reported by Carnemolla et al (1989). Native FN 110 kD (B−) and native FN 120 kD (B+) fragments (see FIG. 2) were purified from a FN digest as previously reported (Borsi et al, 1991). The large isoform of tenascin-C was purified as reported by Saginati et al (1992). Recombinant proteins were expressed and purified as described in Example 1. SDS-PAGE and Western blotting were carried out as described by Carnemolla et al (1989).
(§2) On the left hand side of FIG. 2B is a Coomassie stained gel of the protein fractions analysed by immunoblotting. Plasma FN (lane 1) and thermolysin digests of the protein (lane 3, containing the 110 kD protein, and lane 4, containing digested 110 kD protein) were not recognised by CGS-1 and CGS-2. In contrast, ED-B-rich FN from WI38VA cells, both intact (lane 2) and after increasing thermolysin digestion (lanes 5, 6 and 7) was recognised by both scFv fragments. […]

[4] = biological target: T4, mouse B-FN (mouse, UniProt P11276 33-2477, limits assumed); test: immunohistochemistry
T4 construct: also called mouse B+ fibronectin

[5] = biological target: T5, recombinant ED-B domain of human fibronectin with a carboxy terminal hexahistidine tag (human, UniProt P02751 1266-1356); test: BIAcore, monomeric scFv on immobilised antigen
T5 construct: domain: ED-B; In BIAcore chemically immobilised at the N-terminal amino group; also called rec ED-B; recombinant ED-B peptide
Protocol: (§3) Binding of monovalent scFv at various concentrations in the 0.1-1 μM range in PBS was measured on a BIAcore machine (Pharmacia Biosensor), using the following antigens: (i) 1000 Resonance Units (RU) of biotinylated recombinant FN fragment 7B89 immobilised on a streptavidin coated chip, which was bound specifically by 250 RU of scFv; (ii) 200 RU of recombinant ED-B, chemically immobilised at the N-terminal amino group, which was bound specifically by 600 RU of scFv; (iii) 3500 RU of ED-B-rich fibronectin WI38VA (see Example 3), which was bound specifically by 150 RU of scFv. Kinetic analysis of the data was performed according to the manufacturers' instructions. On the basis of qualitative BIAcore analysis of antibody-containing supernatants, one affinity-matured version of each scFv clone was selected: clone CGS-1 from selection with the 78B9 fragment and CGS-2 from selection with ED-B recombinant FN fragment. The association rate constants ($kon$) and dissociation rate constants ($koff$) are shown in Table 1, together with the calculated equilibrium dissociation constants (Kd) of both scFvs and the original clone 28SI. […] The improvement was due mainly to a slower kinetic dissociation constant (-10^-4 s^-1), as measured with monomeric antibody preparations (not shown).

[6] = biological target: T6, recombinant FN fragment 7B89 (human, UniProt P02751 1173-1537, limits assumed, biotinylated for BIAcore (sites not given)); test: BIAcore, monomeric scFv on immobilised antigen
T6 construct: domain: type III homology repeats 7B89; also called rec FN7B89; 78B9 [sic]
Protocol: as §3

[7] = biological target: T7, fibronectin purified from the conditioned medium of the SV40-transformed cell line WI38VA13 (human, UniProt P02751 32-2477); test: BIAcore, monomeric scFv on immobilised antigen
T7 construct: mature; Mixture of isoforms, most of them B+; also called FN WI38VA; WI38VA FN
Protocol: as §3

[8] = biological target: T1, native FN 110 kD (B-) thermolysin …; test: ELISA on coated antigen, background subtracted
Protocol: (§4) All antigens used in ELISA were diluted in PBS to between 50-100 μg/ml and coated at 4° C. overnight onto Immuno-Plate wells (Nunc, Roskilde, Denmark). Unbound antigen was removed with PBS and plates were then blocked with PBS containing 3% (w/v) bovine serum albumin (BSA) for 2 h at 37° C. This was followed by four washes with PBS containing 0.05% Tween 20 (PBST). Antibodies were then allowed to bind at 37° C. for 1.5 h; scFvs were preincubated with an antiserum directed against the tag sequence: mAb M2 [Kodak, New Haven Conn.] for the FLAG tag or 9E10 [ATCC, Rockville, Md.] for the myc tag. Control antibodies tested were mAbs BC-1 and IST-6. After four washes with PBST, the plates were incubated for 1 h at 37° C. with 1:2000 diluted (in PBST+3% BSA) biotinylated goat anti-mouse IgG (Bio-SPA Division, Milan, Italy). The washes were repeated and Streptavidin-biotinylated alkaline phosphatase complex (Bio-SPA Division, Milan, Italy) was added (1:800 diluted in PBST containing 2 mM MgCl2) for 1 h at 37° C. The reaction was developed using Phosphatase substrate tablets (Sigma) in 10% diethanolamine, pH 9.8 and the optical density was read at 405 nm.

[9] = biological target: T8, native FN 120 kD (B+) thermolysin fragment (human, UniProt P02751 722-1721, limits assumed); test: ELISA on coated antigen, background subtracted
T8 construct: domain: thermolysin treated FN domain 4, containing ED-B; also called 120 kD protein; 120 kD domain
Protocol: as §4

[10] = biological target: T9, recombinant FN fragment 789 (human, UniProt P02751-1 1173-1446, limits assumed); test: ELISA on coated antigen, background subtracted
T9 construct: domain: type III homology repeats 789; the text treats it as lacking ED-B; also called rec FN789
Protocol: as §4

[11] = biological target: T2, recombinant FN domain 6; test: ELISA on coated antigen, background subtracted
Protocol: as §4

[12] = biological target: T5, recombinant ED-B domain of human …; test: ELISA on coated antigen, background subtracted
Protocol: as §4

[13] = biological target: T6, recombinant FN fragment 7B89; test: ELISA on coated antigen, background subtracted
Protocol: as §4

[14] = biological target: T7, fibronectin purified from the …; test: ELISA on coated antigen, background subtracted
Protocol: as §4

[15] = biological target: T5, recombinant ED-B domain of human …; test: BIAcore, monomeric scFv on immobilised antigen; Kd = koff/kon
Protocol: as §3

[16] = biological target: T6, recombinant FN fragment 7B89; test: as above
Protocol: as §3

[17] = biological target: T7, fibronectin purified from the …; test: as above
Protocol: as §3

[18] = biological target: T9, recombinant FN fragment 789; test: immunoblot of recombinant FN proteins expressed in E. coli
Protocol: The fine specificity of CGS-1 and CGS-2 was investigated further by immunoblotting using recombinant FN fragments and fusion proteins with or without the ED-B sequence. The FN fusion proteins were prepared as described by Carnemolla et al (1989). The results of these experiments are shown in FIG. 3; for the association of the schematic diagram to the structure of the domains of human FN, see Carnemolla et al, 1992.

[19] = biological target: T1, native FN 110 kD (B-) thermolysin …; test: immunoblot
Protocol: as §1, §2

[20] = biological target: T10, chicken B-FN (chicken, UniProt P11722 22-2483, limits assumed); test: immunohistochemistry
T10 construct: also called chicken B+ fibronectin

T6 sequence (P02751 other isoform, or with tags, fused parts or gaps limits assumed): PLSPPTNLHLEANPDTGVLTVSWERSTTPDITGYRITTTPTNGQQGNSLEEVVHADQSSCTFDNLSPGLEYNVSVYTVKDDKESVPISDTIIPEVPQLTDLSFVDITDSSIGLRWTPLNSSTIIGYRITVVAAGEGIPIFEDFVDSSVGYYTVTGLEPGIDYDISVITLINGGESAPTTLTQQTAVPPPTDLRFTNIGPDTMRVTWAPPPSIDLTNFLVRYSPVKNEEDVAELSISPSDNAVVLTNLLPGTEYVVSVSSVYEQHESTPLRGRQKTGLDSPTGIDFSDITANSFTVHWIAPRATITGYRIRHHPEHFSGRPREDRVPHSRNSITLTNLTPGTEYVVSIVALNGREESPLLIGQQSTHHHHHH
T7 sequence (P02751 32-2477): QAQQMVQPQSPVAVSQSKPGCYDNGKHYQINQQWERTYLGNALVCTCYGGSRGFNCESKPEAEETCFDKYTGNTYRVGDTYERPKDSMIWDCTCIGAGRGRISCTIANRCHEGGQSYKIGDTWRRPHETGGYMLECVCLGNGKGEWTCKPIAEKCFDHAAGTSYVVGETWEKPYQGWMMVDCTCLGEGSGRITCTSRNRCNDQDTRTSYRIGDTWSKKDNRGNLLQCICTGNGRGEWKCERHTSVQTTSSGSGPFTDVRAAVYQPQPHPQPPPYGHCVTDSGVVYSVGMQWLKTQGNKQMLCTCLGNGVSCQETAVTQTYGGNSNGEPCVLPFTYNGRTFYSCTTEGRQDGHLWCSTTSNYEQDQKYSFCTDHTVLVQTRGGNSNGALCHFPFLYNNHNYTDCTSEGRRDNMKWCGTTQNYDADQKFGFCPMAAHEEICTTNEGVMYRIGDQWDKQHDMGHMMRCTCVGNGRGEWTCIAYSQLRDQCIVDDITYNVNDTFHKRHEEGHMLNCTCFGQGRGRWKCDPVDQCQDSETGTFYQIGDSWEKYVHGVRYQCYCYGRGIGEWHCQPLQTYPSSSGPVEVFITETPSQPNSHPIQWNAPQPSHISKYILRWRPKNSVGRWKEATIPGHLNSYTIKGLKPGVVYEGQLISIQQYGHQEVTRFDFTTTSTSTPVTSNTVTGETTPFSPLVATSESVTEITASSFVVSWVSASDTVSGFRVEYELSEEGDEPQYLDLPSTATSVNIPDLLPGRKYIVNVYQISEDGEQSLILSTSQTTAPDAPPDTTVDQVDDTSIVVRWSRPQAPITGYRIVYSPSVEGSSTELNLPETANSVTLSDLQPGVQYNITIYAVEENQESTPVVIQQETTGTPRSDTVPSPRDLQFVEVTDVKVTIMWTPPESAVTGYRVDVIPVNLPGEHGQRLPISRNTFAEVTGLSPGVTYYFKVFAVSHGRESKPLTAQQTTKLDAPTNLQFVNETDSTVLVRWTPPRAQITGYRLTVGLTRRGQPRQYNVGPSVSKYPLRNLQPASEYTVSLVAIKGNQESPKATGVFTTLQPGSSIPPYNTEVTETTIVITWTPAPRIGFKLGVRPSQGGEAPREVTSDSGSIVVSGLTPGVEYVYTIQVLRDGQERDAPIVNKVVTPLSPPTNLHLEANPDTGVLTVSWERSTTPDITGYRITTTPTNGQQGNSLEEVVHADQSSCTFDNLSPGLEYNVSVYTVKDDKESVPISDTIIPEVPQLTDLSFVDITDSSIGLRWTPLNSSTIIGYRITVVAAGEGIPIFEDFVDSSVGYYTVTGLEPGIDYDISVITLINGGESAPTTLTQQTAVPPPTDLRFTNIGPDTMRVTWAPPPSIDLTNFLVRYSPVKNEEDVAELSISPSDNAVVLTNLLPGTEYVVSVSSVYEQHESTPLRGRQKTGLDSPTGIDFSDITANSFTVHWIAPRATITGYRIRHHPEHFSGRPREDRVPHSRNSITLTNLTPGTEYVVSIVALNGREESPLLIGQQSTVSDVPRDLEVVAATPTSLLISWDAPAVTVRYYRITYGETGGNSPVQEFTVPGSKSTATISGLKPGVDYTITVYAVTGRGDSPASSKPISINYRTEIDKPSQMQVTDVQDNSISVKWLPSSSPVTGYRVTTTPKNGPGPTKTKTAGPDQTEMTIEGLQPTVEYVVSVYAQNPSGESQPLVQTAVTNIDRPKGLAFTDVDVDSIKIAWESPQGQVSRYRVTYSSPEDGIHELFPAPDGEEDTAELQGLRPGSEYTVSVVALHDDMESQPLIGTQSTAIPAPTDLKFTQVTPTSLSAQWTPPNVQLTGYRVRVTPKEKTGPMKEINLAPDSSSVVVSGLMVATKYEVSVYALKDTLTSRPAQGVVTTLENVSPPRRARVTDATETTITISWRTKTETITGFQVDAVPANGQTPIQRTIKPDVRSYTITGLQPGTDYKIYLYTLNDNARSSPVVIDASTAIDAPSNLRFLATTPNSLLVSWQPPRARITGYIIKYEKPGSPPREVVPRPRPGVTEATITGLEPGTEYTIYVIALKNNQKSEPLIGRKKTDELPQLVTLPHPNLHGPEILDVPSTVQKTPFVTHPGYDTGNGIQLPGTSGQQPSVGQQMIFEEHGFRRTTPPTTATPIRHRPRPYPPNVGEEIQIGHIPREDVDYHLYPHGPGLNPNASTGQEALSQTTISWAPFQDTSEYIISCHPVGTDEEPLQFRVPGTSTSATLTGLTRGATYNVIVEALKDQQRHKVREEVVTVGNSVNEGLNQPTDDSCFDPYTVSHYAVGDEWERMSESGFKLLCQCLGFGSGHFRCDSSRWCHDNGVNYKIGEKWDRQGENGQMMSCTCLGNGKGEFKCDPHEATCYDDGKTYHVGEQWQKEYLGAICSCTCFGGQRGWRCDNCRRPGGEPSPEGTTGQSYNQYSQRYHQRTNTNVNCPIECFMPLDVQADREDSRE
T5 sequence (P02751 other isoform, or with tags, fused parts or gaps limits assumed): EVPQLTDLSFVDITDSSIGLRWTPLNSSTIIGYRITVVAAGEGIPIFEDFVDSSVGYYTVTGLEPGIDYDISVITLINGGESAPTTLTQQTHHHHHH
T9 sequence (P02751 other isoform, or with tags, fused parts or gaps limits assumed): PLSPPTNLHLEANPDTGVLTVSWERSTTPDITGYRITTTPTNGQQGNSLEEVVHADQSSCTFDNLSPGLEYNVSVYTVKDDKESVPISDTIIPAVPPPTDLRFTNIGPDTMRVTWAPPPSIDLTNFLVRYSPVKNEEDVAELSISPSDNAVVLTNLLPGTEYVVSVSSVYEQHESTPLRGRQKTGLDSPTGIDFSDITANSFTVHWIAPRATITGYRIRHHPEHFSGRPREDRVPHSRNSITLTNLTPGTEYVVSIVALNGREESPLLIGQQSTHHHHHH
T2 sequence (P02751 other isoform, or with tags, fused parts or gaps limits assumed): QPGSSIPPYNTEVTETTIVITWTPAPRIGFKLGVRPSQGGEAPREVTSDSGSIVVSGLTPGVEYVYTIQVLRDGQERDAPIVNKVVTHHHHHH
T1 sequence (P02751 other isoform, or with tags, fused parts or gaps limits assumed): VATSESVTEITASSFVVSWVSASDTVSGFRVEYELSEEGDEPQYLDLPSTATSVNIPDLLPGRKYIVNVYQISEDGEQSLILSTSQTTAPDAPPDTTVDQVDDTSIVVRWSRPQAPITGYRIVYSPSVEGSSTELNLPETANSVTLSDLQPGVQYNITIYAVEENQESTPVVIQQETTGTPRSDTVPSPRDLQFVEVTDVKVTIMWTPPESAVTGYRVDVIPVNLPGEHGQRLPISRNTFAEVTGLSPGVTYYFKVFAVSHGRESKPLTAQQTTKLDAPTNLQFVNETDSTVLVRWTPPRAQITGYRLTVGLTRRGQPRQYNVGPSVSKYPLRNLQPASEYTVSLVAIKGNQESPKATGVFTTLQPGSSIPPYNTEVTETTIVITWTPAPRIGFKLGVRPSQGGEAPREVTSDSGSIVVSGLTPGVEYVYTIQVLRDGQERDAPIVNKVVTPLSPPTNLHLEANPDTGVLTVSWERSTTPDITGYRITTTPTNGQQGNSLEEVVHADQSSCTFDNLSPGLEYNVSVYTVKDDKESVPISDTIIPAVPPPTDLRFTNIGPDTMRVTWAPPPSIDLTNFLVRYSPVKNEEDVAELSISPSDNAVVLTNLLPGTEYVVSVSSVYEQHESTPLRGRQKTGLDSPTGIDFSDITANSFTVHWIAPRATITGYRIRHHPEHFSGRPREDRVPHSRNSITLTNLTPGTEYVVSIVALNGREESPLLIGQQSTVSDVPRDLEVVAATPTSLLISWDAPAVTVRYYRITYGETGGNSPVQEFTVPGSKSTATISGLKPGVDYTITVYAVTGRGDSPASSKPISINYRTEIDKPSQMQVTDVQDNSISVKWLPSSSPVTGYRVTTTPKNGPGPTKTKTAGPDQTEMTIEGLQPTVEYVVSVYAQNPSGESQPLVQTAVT
T3 sequence (P02751 722-1351 limits assumed): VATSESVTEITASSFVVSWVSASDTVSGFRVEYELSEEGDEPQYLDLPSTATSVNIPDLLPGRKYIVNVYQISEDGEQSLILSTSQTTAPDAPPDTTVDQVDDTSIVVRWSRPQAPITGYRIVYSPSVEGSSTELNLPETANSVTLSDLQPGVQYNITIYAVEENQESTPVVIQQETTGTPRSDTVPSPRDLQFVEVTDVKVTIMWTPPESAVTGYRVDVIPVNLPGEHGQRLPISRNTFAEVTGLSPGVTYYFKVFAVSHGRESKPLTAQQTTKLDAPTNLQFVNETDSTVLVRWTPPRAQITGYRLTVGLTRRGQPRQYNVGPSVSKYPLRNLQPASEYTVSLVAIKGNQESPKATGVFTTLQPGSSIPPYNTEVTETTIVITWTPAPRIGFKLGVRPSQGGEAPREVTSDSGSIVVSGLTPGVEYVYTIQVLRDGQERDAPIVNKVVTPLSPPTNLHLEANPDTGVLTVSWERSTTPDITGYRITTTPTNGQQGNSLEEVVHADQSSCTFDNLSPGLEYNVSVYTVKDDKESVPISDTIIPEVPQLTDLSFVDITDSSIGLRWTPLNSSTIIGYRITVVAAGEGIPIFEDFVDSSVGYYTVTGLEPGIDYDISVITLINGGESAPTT

| binding result [2] | binding result [4] | koff [5] [s⁻¹] | kon [5] [M⁻¹ s⁻¹] | koff [6] [s⁻¹] | kon [6] [M⁻¹ s⁻¹] | koff [7] [s⁻¹] | kon [7] [M⁻¹ s⁻¹] | OD at 405 nm [8] [OD 405 nm] | OD at 405 nm [9] [OD 405 nm] | OD at 405 nm [10] [OD 405 nm] | OD at 405 nm [11] [OD 405 nm] | OD at 405 nm [12] [OD 405 nm] | OD at 405 nm [13] [OD 405 nm] | OD at 405 nm [14] [OD 405 nm] | Kd [15] [nM] | Kd [16] [nM] | Kd [17] [nM] | binding result [18] | Binder | other results |
| --- | --- | --- | --- | --- | --- | --- | --- | --- | --- | --- | --- | --- | --- | --- | --- | --- | --- | --- | --- | --- |
| no binding | binds | 0.007 | 130000 | 0.0039 | 110000 | 0.005 | 410000 | 0.03 | 0.82 | 0.01 | 0.01 | 1.21 | 1.11 | 1.16 | 54 | 35 | 12 | no binding | scFv CGS-1 (scFv, V domains shown, claims 6 and 8 say that 8 is a VH and 10 a VL; VH-linker-VL order follows from the cloning primers; Monomeric, FPLC-purified, in BIAcore; in the ELISA detected through a FLAG or myc tag) VH: QVQLVESGGGLVQPGGSLRLSCAVSGFTFSSYAMSWVRQAPGKGLEWVSAISGSGGSTYYADSVKGRFTISRDNSKNTLYLQMNSLRAEDTAVYYCARSLPKWGQGTLVTVSR VL: SSELTQDPAVSVALGQTVRITCQGDSLRSYYASWYQQKPGQAPVLVTYGKNNRPSGIPDRFSGSSSGNTASLTITGAQAEDEADYYCNSSPVVLNGVVFGGGTKLTVL | binding result [1]: no binding; binding result [3]: no binding |
| no binding | binds | 0.00015 | 130000 | 0.00023 | 110000 | 0.00065 | 290000 | 0.01 | 0.81 | 0.01 | 0.01 | 1.32 | 1.02 | 0.72 | 1.1 | 2.1 | 2.4 | no binding | scFv CGS-2 (scFv, V domains shown, claims 7 and 9 say that 9 is a VH and 11 a VL; Monomeric, FPLC-purified, in BIAcore) VH: not shown VL: SSELTQDPAVSVALGQTVRITCQGDSLRSYYASWYQQKPGQAPVLVIYGKNNRPSGIPDRFSGSSSGNTASLTTTGAQAEDEADYYCNSSPFEHNLVVFGGGTKLTVL | binding result [19]: no binding; binding result [20]: binds |

Source: US8703143 (PHILOGEN S P A, dated 2014)
